Experimental data published in article doi:10.1101/2025.09.09.675193 (bioRxiv, 2025).
Square brackets hold non-standard residues; d marks the D form. Ends that are not written are not given here. * marks the point of attachment. 5FAM = O=C1OC2(c3ccc(O)cc3Oc3cc(O)ccc32)c2ccc(C(=O)*)cc21; pT = C[C@@H](OP(=O)(O)O)[C@H](N)C(=O)O; pS = N[C@@H](COP(=O)(O)O)C(=O)O

T1: DDIAS OB fold C25A/C28A (Homo sapiens, UniProt Q8IXT1 1-168, C25A;C28A)
T1 sequence: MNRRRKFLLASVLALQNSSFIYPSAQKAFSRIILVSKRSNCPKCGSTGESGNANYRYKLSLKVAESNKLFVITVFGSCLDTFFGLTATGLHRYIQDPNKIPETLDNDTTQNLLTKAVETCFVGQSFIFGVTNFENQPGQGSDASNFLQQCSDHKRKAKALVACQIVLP

T2: DDIAS OB fold WT (Homo sapiens, UniProt Q8IXT1 1-168)
T2 sequence: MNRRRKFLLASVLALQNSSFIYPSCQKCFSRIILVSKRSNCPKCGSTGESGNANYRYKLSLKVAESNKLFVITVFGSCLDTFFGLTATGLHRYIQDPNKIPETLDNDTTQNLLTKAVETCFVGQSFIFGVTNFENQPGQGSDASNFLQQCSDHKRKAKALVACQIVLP


Tests used:
[1] = target: recombinant TOPBP1 BRCT domains 7+8 (residues 1263-1495) (human, UniProt Q92547 1263-1495); assay: fluorescence polarisation
Chain of recombinant TOPBP1 BRCT domains 7+8 (residues 1263-1495) (Q92547 1263-1495): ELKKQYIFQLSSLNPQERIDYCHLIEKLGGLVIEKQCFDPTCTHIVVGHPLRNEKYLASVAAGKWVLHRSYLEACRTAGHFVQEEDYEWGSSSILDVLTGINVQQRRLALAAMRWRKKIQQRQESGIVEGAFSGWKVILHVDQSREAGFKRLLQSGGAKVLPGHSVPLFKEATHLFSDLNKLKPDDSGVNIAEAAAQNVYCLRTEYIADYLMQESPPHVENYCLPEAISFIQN

DDIAS OB fold C25A/C28A = target: T1, DDIAS OB fold C25A/C28A; assay: EMSA
DDIAS OB fold WT = target: T2, DDIAS OB fold WT; assay: EMSA
[2] = target: recombinant TOPBP1 BRCT domains 4+5 (residues 548-741) (human, UniProt Q92547 548-741); assay: fluorescence polarisation
Chain of recombinant TOPBP1 BRCT domains 4+5 (residues 548-741) (Q92547 548-741): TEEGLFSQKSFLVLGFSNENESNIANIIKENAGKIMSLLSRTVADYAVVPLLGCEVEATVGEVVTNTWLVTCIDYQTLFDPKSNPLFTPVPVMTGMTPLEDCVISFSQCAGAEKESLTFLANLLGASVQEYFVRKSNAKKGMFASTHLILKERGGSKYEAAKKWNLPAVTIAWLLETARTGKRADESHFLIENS

Row | binding result [1] | Binder | binding result (DDIAS OB fold WT) | also measured
1 | binds | 5FAM-GSGEGSYDA[pS]ADLFDD (also: phosphoserine at Ser676 (S6 or S10)) [DDIAS-pS676 peptide, 5-carboxy-fluorescein labelled] | – | –
2 | – | GATGAGATTGAGGCTGGCCTGCAGGCATGCAAGCACCTGG (ssDNA) [Cy5 40-nt ssDNA] | binds | binding result (DDIAS OB fold C25A/C28A): no binding
3 | – | Cy5 40-bp dsDNA (dsDNA) DNA 1: GATGAGATTGAGGCTGGCCTGCAGGCATGCAAGCACCTGG DNA 2: CCAGGTGCTTGCATGCCTGCAGGCCAGCCTCAATCTCATC | no binding | –
4 | binds | 5FAM-GSGETRSAW[pS]PELFS (also: phosphoserine at Ser993 (position not mappable)) [DDIAS-pS993 peptide, 5-carboxy-fluorescein labelled] | – | –
5 | – | 5FAM-GSGETDSDEWVPP[pT]TQK (also: phosphothreonine at Thr868 (position not mappable)) [DDIAS-pT868 peptide, 5-carboxy-fluorescein labelled] | – | binding result [2]: binds
